According to paper PMC5895748:

Molecular target: human Toll-like receptor 5 (hTLR5) (human) (UniProt O60602)
Sequence of UniProt O60602 (O60602 21-858): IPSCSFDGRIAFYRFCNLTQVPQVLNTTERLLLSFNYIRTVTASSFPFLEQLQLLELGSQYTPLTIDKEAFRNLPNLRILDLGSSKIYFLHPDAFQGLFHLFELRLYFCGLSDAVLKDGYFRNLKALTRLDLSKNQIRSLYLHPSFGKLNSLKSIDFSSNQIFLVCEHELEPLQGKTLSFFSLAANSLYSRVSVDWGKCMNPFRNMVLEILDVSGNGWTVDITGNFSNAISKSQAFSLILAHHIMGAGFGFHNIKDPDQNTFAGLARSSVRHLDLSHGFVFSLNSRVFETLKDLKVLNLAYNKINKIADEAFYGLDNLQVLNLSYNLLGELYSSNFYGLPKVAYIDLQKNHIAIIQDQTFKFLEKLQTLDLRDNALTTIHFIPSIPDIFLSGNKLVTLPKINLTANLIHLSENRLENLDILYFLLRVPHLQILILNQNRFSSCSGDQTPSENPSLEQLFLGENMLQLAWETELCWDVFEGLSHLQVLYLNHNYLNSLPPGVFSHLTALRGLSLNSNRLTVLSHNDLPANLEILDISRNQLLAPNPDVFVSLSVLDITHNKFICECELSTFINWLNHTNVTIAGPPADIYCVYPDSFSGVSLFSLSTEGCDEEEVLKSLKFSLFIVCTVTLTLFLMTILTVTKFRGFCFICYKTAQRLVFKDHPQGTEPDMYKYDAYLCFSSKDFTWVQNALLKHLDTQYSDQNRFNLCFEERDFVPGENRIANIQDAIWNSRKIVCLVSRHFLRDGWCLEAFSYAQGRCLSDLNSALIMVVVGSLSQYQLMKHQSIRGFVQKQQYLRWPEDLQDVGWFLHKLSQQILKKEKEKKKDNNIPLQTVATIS

| Substance | EC50 of TLR5 stimulation, HEK293blue-hTLR5 reporter cells (NF-kB-inducible SEAP) [pM] | EC50 of TLR5 stimulation, HEK293blue-hTLR5 reporter cells (SEAP); protein incubated at 37 °C for 24 hours before the assay [pM] |
| --- | --- | --- |
| Bacillus cereus flagellin BC1658 (BcFlg) (natural protein) | 1.7 | 1.9 |
| Bacillus cereus flagellin BC1659 (natural protein) | 55.4 |  |
| BcFlg^cF, T4 lysozyme fused to the C-terminal end of BcFlg | 2.3 | 129 |
| BcFlg^mF, T4 lysozyme inserted into BcFlg residues 178-180 | 1.4 | 2.4 |
| BcFlg^nF, T4 lysozyme fused to the N-terminal end of BcFlg | 44.2 |  |
